Source: US20220089721A1 (Bayer, published 2022)

Tests used:
[1] = target: T cell immunoglobulin domain and mucin domain 3 (TIM-3) (human) (UniProt Q8TDQ0); assay: cell-based or functional assay
[2] = target: T1, human CEACAM6 (carcinoembryonic antigen-related cell adhesion molecule 6) (human, UniProt P40199 35-320); assay: cell-based or functional assay
T1 sequence (looked up): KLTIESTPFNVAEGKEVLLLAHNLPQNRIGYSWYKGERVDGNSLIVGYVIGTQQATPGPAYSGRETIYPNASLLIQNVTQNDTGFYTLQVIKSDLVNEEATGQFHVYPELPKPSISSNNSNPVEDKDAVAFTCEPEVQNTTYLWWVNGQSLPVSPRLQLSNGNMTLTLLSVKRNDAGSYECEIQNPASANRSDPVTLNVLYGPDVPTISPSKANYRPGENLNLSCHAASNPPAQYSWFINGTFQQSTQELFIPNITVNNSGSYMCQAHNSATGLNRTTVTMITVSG

## MAB2365 (rIgG2, R&D Jackson Immunoresearch), anti-TIM3 antibody
[1]
  IFN-γ in pg/ml, absolute mean, TC + HCC + 0.5 µg/ml FLU pep + 50 µg/ml antibody (isotype Mab006: 735.0): 925 pg/mL
  IFNg [pg/ml], isotype corrected, FluM1 T cells + HCC2935, single agent 50 µg/ml, experiment 1: 65 pg/mL
  IFNg [pg/ml], isotype corrected, FluM1 T cells + HCC2935, single agent 50 µg/ml, experiment 2: 67.7 pg/mL
  IFNg [pg/ml], isotype corrected, FluM1 T cells + HCC2935, single agent 50 µg/ml, experiment 3: 37 pg/mL
  IFNg [pg/ml], isotype corrected, FluM1 T cells + HCC2935, single agent 50 µg/ml, experiment 4: 247 pg/mL
  IFNg [pg/ml], isotype corrected, FluM1 T cells + HCC2935, single agent 50 µg/ml, experiment 5: 287 pg/mL
  IFNg [pg/ml], isotype corrected, FluM1 T cells + HCC2935, single agent 50 µg/ml, experiment 6: 288 pg/mL
  IFNg [pg/ml], isotype corrected, FluM1 T cells + HCC2935, single agent 50 µg/ml, experiment 7: 278 pg/mL
  IFNg [pg/ml], isotype corrected, FluM1 T cells + HCC2935, single agent 50 µg/ml, mean of n = 7: 182 pg/mL
  Mean IFNg (pg/ml), isotype corrected, survivin-peptide specific T cells + HCC2935 lung cells, single agent 50 µg/ml, n = 1: 63.6 pg/mL
  Mean IFNg (pg/ml), isotype corrected, survivin-peptide specific T cells + KS breast cancer cells, single agent 50 µg/ml, n = 1: 18.3 pg/mL

B1: anti-CEACAM6 antibody TPP-3310 (antibody, human IgG2, kappa, V domains shown)
VH: QVTLRESGPALVKPTQTLTLTCTFSGFSLSTYGIGVGWIRQPPGKALEWLAHIWWNDNKYYSTSLKTRLTISKDTSKNQVVLTMTNMDPVDTATYYCARISLPYFDYWGQGTTLTVSS
VL: DIQLTQSPSFLSASVGDRVTITCKASQNVGTAVAWYQQKPGKAPKLLIYSASNRYTGVPSRFSGSGSGTEFTLTISSLQPEDFATYYCQQYSSYPLTFGGGTKVEIKR
[2]
  half-maximal effective concentration (EC50) for activation of T cells in co-culture: ~1 µg/mL
